Experimental data: the Human Domainome abundance scans (Beltran et al. 2025)

B1: POU domain, class 3, transcription factor 3, residues 408 to 463; numbered along this chain, P20264 (parent)
chain: KKRTSIEVSVKGALESHFLKCPKPSAQEITNLADSLQLEKEVVRVWFCNRRQKEKR
B2: Transcription factor SOX-4, residues 60 to 127; numbered along this chain, Q06945 (parent)
chain: KRPMNAFMVWSQIERRKIMEQSPDMHNAEISKRLGKRWKLLKDSDKIPFIREAERLRLKHMADYPDYK

Variants of: B1
Assay: abundance fitness (aPCA) (normalised: wild type 0, dead -1); higher = more abundant; growth selection in yeast, the domain comes from the species named
Details: Homo sapiens

Abundance fitness: each site, then its substitutions
K2: N -0.094, C -0.332, Y -0.391, V -0.048, G -0.025, D -0.098, P -0.305, T -0.008, S -0.077, R -0.086, E -0.054, F 0.056, W -0.321, M -0.066, H -0.38, Q -0.255, A -0.13, I -0.374
K1: D -0.124, R -0.263, I -0.181, W -0.15, Y -0.258, Q -0.271, N -0.072, L -0.756, G -0.067, A -0.075, M -0.333, S -0.154, V -0.092, C -0.104
S5: C 0.128, N 0.193, H 0.175, E -0.047, G -0.008, P 0.132, M 0.125, Y 0.206, K 0.097, T 0.135, D -0.064, A 0.086, W -0.255, Q 0.203
I6: F -0.272, D -0.135, N -0.234, K -0.051, E -0.091, G -0.071, P 0.01, Q -0.084, S -0.077, R -0.108, A -0.015
T4: P -0.257, M -0.064, R -0.26, C -0.205, E -0.082, K -0.142, V -0.095, L -0.093, I -0.014, G -0.077, Q 0.005, D -0.279, Y -0.19, H -0.405, W -0.572, A -0.17, S -0.077, F -0.116
R3: V 0.031, I -0.023, H -0.273, F -0.119, W -0.155, T -0.077, K 0.067, N -0.048, Q -0.217, A -0.15, P -0.2, M 0.045, L 0.055, C -0.415, S 0.026, G 0.04, Y -0.267

Variants of: B2
Assay: as above
Details: Homo sapiens

Abundance fitness, by site and new letter:
K39: F -0.481, Y -0.263, H -0.506, R -0.187
L41: P -0.728, M 0.071, V -0.529, Y -0.807, T -0.788
P23: S -0.47, I -0.568, T -0.593, L -0.52, E -0.554
H60: K 0.023, M -0.092, V -0.173, E 0.053
K68: Y -0.125
G35: Q 0.302, D 0.116, A 0.171
I50: T -0.337, K -0.362
D24: C -0.335
E52: D -0.223, K -0.515, S -0.712, M -0.394
K17: E -1.1, N -0.262, F -0.353
L40: V -0.329, S 0.039, C -0.046
N27: T -0.049, M -0.043, P 0.184, K -0.03, V -0.07
P3: Y -0.182, L -0.216, K -0.103, A -0.114
R55: I -0.22, Q -0.188, N -0.22, P -0.5
A62: H -0.175, K 0.008, D 0.015, M -0.304
I13: N -0.164, C -0.29, G -0.222
Y67: W -0.296, T -0.14, V 0.159, Q 0.051, E 0.179, S 0.088, H -0.301
Y64: V 0.02, N 0.124, F -0.156, A -0.094
S31: I -0.054, M 0.072
Q21: C -0.581, L -0.349, I -0.128, W -0.884
P48: Q -0.286, V -0.315, F -0.351
